Results published in patent US11360100B2, “Methods and compositions useful in detecting proteins” (OREGON HEALTH & SCIENCE UNIVERSITY, priority 2016, dated 2022).
Entries after “also recorded” stand apart in the source; their conditions may differ. AF647 = AlexaFluor 647; Cy5 = Cy5 cyanine dye

Assays:
[1] = test system: CoilY-mCherry; test: SDS-PAGE/PVDF membrane labeling of transfected HEK293FT lysates, CoilY-mCherry; format: binding; details: cell lysates, SDS-PAGE, PVDF membrane
Method: The CoilY and CoilZ pair could be used to label two protein targets simultaneously. Transfected HEK293FT cell lysates from cells expressing mCherry, CoilY-mCherry, EGFP, or CoilZ-EGFP were resolved by SDS-PAGE and transferred to a PVDF membrane. The membrane was incubated sequentially with CoilZ-fluorescein and CoilY-rhodamine before imaging. GFP and mCherry fluorescence was not preserved due to SDS-PAGE protein denaturation.
(§1) A protein gel-based assay was optimized for analyzing VIP tags in vitro. Cell lysates were made from cells transfected with mCherry, CoilY-mCherry, GFP, or CoilZ-GFP, resolved by SDS-PAGE, and transferred to a membrane. GFP and mCherry fluorescence were not preserved in this experiment. The membrane was then contacted with CoilZ-fluorescein and CoilY-rhodamine before imaging. […] The probe peptides were specific for each tagged protein, and this single pair enabled specific and selective protein tagging of two distinct targets. In addition both the VIP E/R and VIP Y/Z tag sets could be used concurrently to label two recombinant proteins (DHFR and mCherry) without crosstalk (FIG. 23).

[2] = test system: His6-CoilY-mCherry; test: Detection limit comparison on PVDF membrane (peptide vs immunolabeling); format: binding; details: serial dilutions 400 ng to 0.8 ng
Method: FIG. 10 is a detection limit comparison between peptide and immunolabeling. Serial dilutions of CoilY-mCherry (400 ng to 0.8 ng) were run on two identical SDS-PAGE gels before transfer to a PVDF membrane. The first membrane (top) was treated with CoilZ-fluorescein (CoilZ-FL) and imaged (ex 475/42 nm; em 537/35 nm). The second membrane (bottom) was labeled using an AF488-conjugated anti-His antibody “AF488-His” (QIAGEN, product number 35310) and imaged (475/42 nm excitation, 537/35 nm emission).
The disclosed method is a sensitive alternative to fluorescent immunoblotting. Purified His6-CoilY-mCherry was generated and the sensitivity of detection of the His6-CoilY-mCherry using our CoilZ-fluorescein was compared to that of an AF488-labeled anti-His antibody from Qiagen. CoilZ-fluorescein could detect as little as 3 ng of His6-CoilY-mCherry, while the antibody required 8-fold more target protein (FIG. 10).
Specifically, purified His6-mCherry and His6-CoilY-mCherry were loaded on a 10% SDS-PAGE gel for separation. Electrophoresis occurred at 165 V for 1 h. […]
Decreasing quantities of purified CoilY-mCherry (400 ng to 0.8 ng) were resolved by SDS-PAGE and transferred to a PVDF membrane. […] CoilY-mCherry was detected by blotting with anti-pentahistidine mouse antibody conjugated to AlexaFluor488 (1:5000, QIAGEN; product number 35310). […]

[3] = test system: untagged mCherry and DHFR; test: SDS-PAGE/PVDF membrane labeling, untagged proteins; format: binding; details: lysates and purified proteins, PVDF membrane
Method: Crude lysates (lys.) and purified proteins (serial dilutions) were resolved by SDS-PAGE. Lysates were prepared from HERK 293FT cells transfected with mCherry, CoilY-mCherry, DHFR, and CoilE-DHFR. The protein gel was transferred to a PVDF membrane and then incubated with CoilZ-Fluorescein and CoilR-rhodamine. After washing, the membrane was imaged to detect VIPER labeling of DHFR (red) and VIP Y/Z labeling of mCherry (green). Untagged proteins were not labeled by either CoilR-rhodamine or CoilZ-fluorescein.
as §1

[4] = test system: untagged EGFP-TM; test: Flow cytometry of probe labeling, live U-2 OS cells expressing untagged EGFP-TM; format: cell-based, human; details: 500 nM probe
Method: (§2) The in vitro results were translated to living cells. Flow cytometry was used to evaluate protein labeling in live human osteosarcoma (U-2 OS) cells expressing CoilZ-EGFP-TM, CoilY-EGFP-TM, or untagged EGFP-TM (FIG. 11). Cells were treated with 500 nM AF647-conjugated probe peptide before analysis, and we gated for EGFP-expressing cells. […] Non-specific labeling of untagged EGFP-TM and homodimerization with CoilY-EGFP-TM were minimal for cells exposed to CoilY-AF647. Cells expressing CoilY-EGFP-TM were labeled with CoilZ-AF647, but with only a 4-fold enhancement.
Protein labeling was assessed as a function of CoilY-AF647 concentration (FIG. 25). Live cells expressing CoilZ-EGFP-TM or untagged EGFP-TM were treated with a range of CoilY-AF647 concentrations (50 nM to 1000 nM for 30 min at room temperature). […] Cells had 21- to 44-fold higher median fluorescence compared to cells expressing untagged protein. Treatment with 300 nM AF647-CoilY gave optimal labeling, with 98% of cells labeled and a 35-fold increase in AF647 fluorescence. Treatment with an excess of probe peptide (i.e., 1000 nM) enhanced the AF647 signal, but at the cost of a small increase in non-specific labeling.

[5] = test system: CoilY-EGFP-TM; test: Flow cytometry of probe labeling, live U-2 OS cells expressing CoilY-EGFP-TM; format: cell-based, human; details: 500 nM probe
From the text: (§3) Cells were gated for green fluorescence and analyzed for labeling with CoilY-AF647 (A) or CoilZ-AF647 (B). Transfected cells expressed CoilZ-EGFP-TM (green), CoilY-EGFP-TM (blue), or untagged EGFP-TM (gray). Values in bold indicate the median AF647 fluorescence for each cell population.
as §2

[6] = test system: CoilZ-EGFP; test: Fluorescence microscopy labeling of cell-surface CoilZ-GFP (CoilZ-EGFP); format: cell-based, human
Method: (§4) Fluorescence microscopy was used to confirm that the VIP Y/Z tag set enabled selective fluorescent labeling of proteins (FIGS. 3A and 3B). CoilZ was expressed by fusion to a cell-surface localized variant of GFP (CoilZ-GFP; pDisplay vector). […] Labeling was rapid (<30 min), target-specific, and live-cell compatible. Homodimerization between a CoilZ probe peptide and CoilZ-GFP was not observed. Cells expressing untagged GFP were not labeled with the CoilY probe peptide. CoilY was also expressed fused to the cell surface localized GFP and visualized using a CoilZ-AF647 probe peptide (FIG. 3B). No homodimerization of CoilY was observed, and the labeling was specific.
(§5) It was next confirmed that the VIP Y/Z tag set could be used in two-target imaging in fixed cells (FIGS. 5B and 13). A combination of cell lines singly-transfected with mCherry, GFP, CoilY-mCherry, or CoilZ-GFP was used, as illustrated in FIG. 9. […] Then we labeled two tagged FPs in one sample using a mixed population of cells expressing either CoilY-mCherry or CoilZ-GFP.
(§6) The disclosed methods were tested in transfected human osteosarcoma cells (U-2 OS). A pDisplay vector was used to target CoilZ-EGFP and untagged EGFP to the cell surface. This construct includes a C-terminal fusion to the transmembrane domain of the platelet derived growth factor receptor. As expected, both CoilZ-EGFP and untagged EGFP localized to the cell surface, and green fluorescence was observed within 24 h of transfection. Then the cells were blocked with 6% BSA and 10% FBS for 30 minutes at 37° C. and then contacted with an AF647-conjugated CoilY probe (CoilY-AF647), 30 min at 4° C. Cells were fixed before imaging by confocal fluorescence microscopy. The probe peptides are membrane impermeant; only cell-surface EGFP was accessible to CoilY-AF647 for labeling. Colocalization of green fluorescent CoilZ-EGFP with CoilY-AF647 was observed.
(§7) The CoilY/CoilZ tag set is also compatible with live-cell imaging. CoilZ-EGFP was contacted with CoilY-AF647 in live U2OS cells. […] Homodimerization was not observed for CoilY-EGFP incubated with CoilY-AF647. Non-specific labeling of untagged GFP was not observed (FIG. 26). Cells internalize labeled targets over time. CoilZ-GFP and CoilY-AF647 co-localization was observed on the surface and in endocytic vesicles due to rapid internalization, and AF647 signal accumulated inside cells during a 40 min. long incubation at room temperature (FIG. 12).
The VIPY/Z tag set can be used to label multiple protein targets simultaneously. Cells expressing CoilY-mCherry were combined with those expressing CoilZ-EGFP-pDisplay (FIG. 9). This mixed cell population, as well as unmixed CoilZ-GFP, CoilY-mCherry, and untagged controls, were plated for imaging. […] Fluorescence was detected by confocal fluorescence imaging. […]

[7] = test system: CoilY-mCherry; test: Two-target fluorescence imaging, cells expressing CoilY-mCherry; format: cell-based; details: fluorescence microscopy
From the text: as §5
The VIPY/Z tag set can be used to label multiple protein targets simultaneously. Cells expressing CoilY-mCherry were combined with those expressing CoilZ-EGFP-pDisplay (FIG. 9). This mixed cell population, as well as unmixed CoilZ-GFP, CoilY-mCherry, and untagged controls, were plated for imaging. After blocking for 30 minutes at 37° C. with 6% BSA, 10% FBS, cells were treated at 4° C. with 500 nM CoilZ-biotin for 15 min and then 500 nM CoilY-AF647 for 15 min. […] Cells were then fixed, blocked for 1 hour with 6% BSA, 10% FBS and treated with Qdot565-conjugated streptavidin in order to label CoilZ-biotin. Fluorescence was detected by confocal fluorescence imaging. […] So the CoilY/Z tag set can be used to image up to four proteins at once.

[8] = test system: untagged GFP/EGFP and mCherry; test: Fluorescence microscopy, cells expressing untagged fluorescent proteins; format: cell-based, human
Method: as §4, §5, §6
The CoilY/CoilZ tag set is bidirectional—either CoilZ or CoilY can serve as the probe peptide. CoilY-EGFP was expressed on the surface of U2OS cells and labeled with CoilZ-AF647. […]

[9] = test system: CoilZ-EGFP-TM; test: Flow cytometry of probe labeling, live U-2 OS cells expressing CoilZ-EGFP-TM; format: cell-based, human
From the text: as §3
FIGS. 25A and 25B provide flow analysis of cells treated with CoilY-AF647. In FIG. 25A U-2 OS cells were transfected with EGFP-TM or CoilZ-EGFP-TM and treated with increasing concentrations of CoilY-AF647. Single, live, green fluorescent cells expressing untagged (left) or tagged (right) EGFP-TM were counted and analyzed for labeling without probe peptide (0 nM) or with CoilY-AF647 (50, 100, 300, 500, 750, or 1000 nM). Values within each histogram indicate the median AF647 fluorescence for each cell population. Data analyzed included between 26,000 and 35,000 live, singlet GFP+ cells.
The in vitro results were translated to living cells. Flow cytometry was used to evaluate protein labeling in live human osteosarcoma (U-2 OS) cells expressing CoilZ-EGFP-TM, CoilY-EGFP-TM, or untagged EGFP-TM (FIG. 11). […]
Protein labeling was assessed as a function of CoilY-AF647 concentration (FIG. 25). […] Cells had 21- to 44-fold higher median fluorescence compared to cells expressing untagged protein. Treatment with 300 nM AF647-CoilY gave optimal labeling, with 98% of cells labeled and a 35-fold increase in AF647 fluorescence. […]

[10] = test system: CoilY-EGFP; test: Fluorescence microscopy labeling of cell-surface CoilY-GFP (CoilY-EGFP); format: cell-based, human; details: fluorescence microscopy
Method: as §4
The CoilY/CoilZ tag set is bidirectional—either CoilZ or CoilY can serve as the probe peptide. CoilY-EGFP was expressed on the surface of U2OS cells and labeled with CoilZ-AF647. Protein labeling was rapid (<30 min) and specific; non-specific labeling of untagged EGFP was not observed. Homodimerization was not observed for either CoilZ-AF647 with CoilZ-EGFP or CoilY-AF647 with CoilY-EGFP (FIG. 3B).
as §7

[11] = test system: untagged mEmerald constructs; test: VIPER labeling of fixed, permeabilized U-2 OS cells, untagged constructs; format: cell-based; details: 100 nM probe, same acquisition settings
Method: The CoilE and CoilR peptides were assessed for their ability to label intracellular structures without perturbing normal trafficking and distribution of the tagged proteins. U-2 OS cells were transfected with mEmerald-actin-C18, mEmerald-CoilE-actin-C18, H2B-6-mEmerald, H2B-6-CoilE-mEmerald, Mito-7-mEmerald, and Mito-7-CoilE-mEmerald and fixed with 4% PFA 24 hours after transfection. Cells were then lightly permeabilized and then labeled with 100 nM CoilR-Cy5 in a blocking buffer. Cells were fixed and imaged using with line-scanning confocal microscope. […] VIPER labeling was specific, given by the colocalization of features between the VIPER(Cy5) and mEmerald signal.

[12] = target: T1, untagged TfR1 (Homo sapiens, UniProt P02786); test: CoilR probe labeling of CHO TRVb cells expressing untagged TfR1; format: cell-based; details: labeled at 4° C.
T1 construct: expressed in transfected cells; host or cells: CHO TRVb
T1 sequence (P02786 whole entry): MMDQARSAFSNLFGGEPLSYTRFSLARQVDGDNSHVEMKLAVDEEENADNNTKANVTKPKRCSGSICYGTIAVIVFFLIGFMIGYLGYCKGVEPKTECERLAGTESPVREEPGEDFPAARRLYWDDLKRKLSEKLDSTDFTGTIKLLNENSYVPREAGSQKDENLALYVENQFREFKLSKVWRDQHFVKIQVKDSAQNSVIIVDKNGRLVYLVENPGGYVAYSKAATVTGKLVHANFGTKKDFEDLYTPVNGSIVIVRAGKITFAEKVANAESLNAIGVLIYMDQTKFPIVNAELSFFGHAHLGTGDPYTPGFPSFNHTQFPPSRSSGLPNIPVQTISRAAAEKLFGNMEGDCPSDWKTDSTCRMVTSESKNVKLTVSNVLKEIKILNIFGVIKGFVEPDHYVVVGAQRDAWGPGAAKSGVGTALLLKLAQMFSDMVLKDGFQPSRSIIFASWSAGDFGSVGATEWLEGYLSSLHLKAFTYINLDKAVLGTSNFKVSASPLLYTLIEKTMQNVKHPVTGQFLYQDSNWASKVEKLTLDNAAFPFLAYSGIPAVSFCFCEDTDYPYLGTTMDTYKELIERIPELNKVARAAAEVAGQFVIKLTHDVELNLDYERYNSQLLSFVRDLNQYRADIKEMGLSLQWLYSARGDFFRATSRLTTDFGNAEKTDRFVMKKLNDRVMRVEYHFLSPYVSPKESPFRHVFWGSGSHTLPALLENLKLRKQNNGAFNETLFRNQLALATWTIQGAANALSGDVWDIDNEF

B1: CoilZ-fluorescein: green fluorescent CoilZ probe peptide, maleimide conjugate (conjugate)
peptide: MGSSQKVAQLKNRVAYKLKENAKLENIVARLENDNANLEKDIANLEKDIANLERDVARGGGAAACLGKLAAALEHHHHHH
probe peptide binding to CoilY-mCherry on membrane [1]: specific coiled-coil heterodimer formation could be detected; also recorded: Probe peptide binding was detected | least amount of His6-CoilY-mCherry detected [2]: 3 ng | labeling of untagged proteins on membrane [3]: not labeled

B2: CoilY-AF647: CoilY probe peptide conjugated to AlexaFluor 647 (conjugate)
peptide: MGSSNTVKELKNYIQELEERNAELKNLKEHLKFAKAELEFELAAHKFEGGGAAAC(AF647)LGKLAAALEHHHHHH
modifications: not fully specified
non-specific labeling of untagged EGFP-TM [4]: minimal | homodimerization with CoilY-EGFP-TM [5]: minimal | labeling time (rapid) ([6]; cell-surface CoilZ-GFP/EGFP, live-cell compatible): < 30 min | labeling of CoilZ-GFP/EGFP (specificity, colocalization) ([6]; fluorescence microscopy): target-specific; also recorded: labeled; also recorded: Colocalization; also recorded: specifically label | homodimerization / cross-reactivity of CoilY probe with CoilY-mCherry [7]: not observed; also recorded: no cross-reactivity | non-specific labeling of untagged fluorescent proteins [8]: did not interact; also recorded: No CoilY-AF647 labeling was detected; also recorded: not observed | cells labeled ([9]; 300 nM probe): 98% | enhancement of protein labeling (AF647 fluorescence) ([9]; 500 nM probe, live U-2 OS, gated for EGFP): greater than 40 fold | homodimerization of CoilY probe with CoilY-GFP/EGFP [10]: not observed

B3: CoilR-Cy5: CoilR probe peptide conjugated to Cy5 (conjugate)
peptide: MGGSLEIRAAFLRQRNTALRTEVAELEQEVQRLENEVSQYETRYGPLGGGAAALGC(Cy5)LAAALEHHHHHH
Cy5 signal in cells expressing untagged mEmerald constructs [11]: no significant Cy5 signal | labeling of cells expressing untagged TfR1 [12]: no CoilR-Cy5 signal; also recorded: showed now labeling
